Target: CD2
Test: flow cytometry on primary human T cells at day 5; CD2 detected with the competing clone RPA-2.10

CD2, sequence (receptor chain, as listed by the source limits assumed, form in doubt): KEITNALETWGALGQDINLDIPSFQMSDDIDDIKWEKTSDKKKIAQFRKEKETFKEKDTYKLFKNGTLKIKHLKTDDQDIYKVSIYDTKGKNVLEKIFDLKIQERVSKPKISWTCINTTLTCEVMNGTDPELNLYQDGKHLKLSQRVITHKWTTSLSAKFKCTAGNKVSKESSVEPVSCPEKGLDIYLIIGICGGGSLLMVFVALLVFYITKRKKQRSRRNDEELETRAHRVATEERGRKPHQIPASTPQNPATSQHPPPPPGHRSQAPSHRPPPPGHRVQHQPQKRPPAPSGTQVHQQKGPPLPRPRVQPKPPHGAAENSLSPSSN

CD2 RPA naked (antibody) gave an IC50 (read off the curve) of 80 pM.
